# Laboratory results reported in US7084111 (UNIVERSITY OF FLORIDA RESEARCH FOUNDATION, dated 2006).
# Bridges are numbered along the chain shown (N, C = ends). Where no end group is shown, it is not given here. [ ]: non-standard residue; d: D form. Nle = CCCC[C@H](N)C(=O)O; Dap = NC[C@H](N)C(=O)O
# B1: SEQ ID NO:31 (Tyr-c[Asp-His-Pro-Arg-Trp-Asn-Ala-Phe-Dpr]-Tyr) (peptide)
# peptide: YDHPRWNAF[Dap]Y-NH2
# modifications: lactam 2-10; N-terminus assumed
# SMILES: C[C@@H]1NC(=O)[C@H](CC(N)=O)NC(=O)[C@H](Cc2c[nH]c3ccccc23)NC(=O)[C@H](CCCNC(=N)N)NC(=O)[C@@H]2CCCN2C(=O)[C@H](Cc2c[nH]cn2)NC(=O)[C@@H](NC(=O)[C@@H](N)Cc2ccc(O)cc2)CC(=O)NC[C@@H](C(=O)N[C@@H](Cc2ccc(O)cc2)C(N)=O)NC(=O)[C@H](Cc2ccccc2)NC1=O
# B2: SEQ ID NO:7 (Tyr-c[Asp-DPhe-Arg-Trp-Asn-Ala-Phe-Dpr]-Tyr-NH2) (peptide)
# peptide: YD[dF]RWNAF[Dap]Y-NH2
# modifications: lactam 2-9
# B3: SEQ ID NO:5 (Tyr-c[Asp-Trp-Arg-DPhe-Asn-Ala-Phe-Dpr]-Tyr) (peptide)
# peptide: YDWR[dF]NAF[Dap]Y-NH2
# modifications: lactam 2-9; N-terminus assumed
# SMILES: C[C@@H]1NC(=O)[C@H](CC(N)=O)NC(=O)[C@@H](Cc2ccccc2)NC(=O)[C@H](CCCNC(=N)N)NC(=O)[C@H](Cc2c[nH]c3ccccc23)NC(=O)[C@@H](NC(=O)[C@@H](N)Cc2ccc(O)cc2)CC(=O)NC[C@@H](C(=O)N[C@@H](Cc2ccc(O)cc2)C(N)=O)NC(=O)[C@H](Cc2ccccc2)NC1=O
# B4: SEQ ID NO:35 (Tyr-c[Asp-His-DBip-Arg-Trp-Asn-Ala-Phe-Dpr]-Tyr) (peptide)
# peptide: YDHXRWNAFXY
# modifications: Asp-Dpr side chain lactam bridge; Dpr; DBip; C-terminal amide (amide resin)
# B5: SEQ ID NO:34 (Tyr-c[Asp-His-DNal(1′)-Arg-Trp-Asn-Ala-Phe-Dpr]-Tyr) (peptide)
# peptide: YDHXRWNAFXY
# modifications: Asp-Dpr side chain lactam bridge; Dpr; DNal(1′); C-terminal amide (amide resin)
# B6: SEQ ID NO:36 (Tyr-c[Asp-His-DPhe-Pro-Trp-Asn-Ala-Phe-Dpr]-Tyr) (peptide)
# peptide: YDHXPWNAFXY
# modifications: Asp-Dpr side chain lactam bridge; Dpr; DPhe; C-terminal amide (amide resin)
# B7: SEQ ID NO:38 (Tyr-c[Asp-His-DPhe-Arg-Pro-Asn-Ala-Phe-Dpr]-Tyr) (peptide)
# peptide: YDHXRPNAFXY
# modifications: Asp-Dpr side chain lactam bridge; Dpr; DPhe; C-terminal amide (amide resin)
# B8: SEQ ID NO:3 (Tyr-c[Asp-Arg-Phe-Phe-Asn-Ala-Phe-Dpr]-Tyr) (peptide)
# peptide: YDRFFNAF[Dap]Y-NH2
# modifications: lactam 2-9
# B9: SEQ ID NO:22 (Ac-Nle-c[Asp-His-Arg-DPhe-Phe-Lys]) (peptide)
# peptide: Ac-[Nle]DHR[dF]FK-NH2
# modifications: lactam 2-7
# B10: SEQ ID NO:28 (Tyr-c[Asp-Pro-DPhe-Arg-Trp-Asn-Ala-Phe-Dpr]-Tyr) (peptide)
# peptide: YDPXRWNAFXY
# modifications: Asp-Dpr side chain lactam bridge; Dpr; DPhe; C-terminal amide (amide resin)
# B11: SEQ ID NO:16 (Ac-Ser-Tyr-Ser-Nle-Glu-His-DArg-Phe-Phe-Gly-Lys-Pro-Val) (peptide)
# peptide: Ac-SYS[Nle]EH[dR]FFGKPV-NH2
# B12: SEQ ID NO:24 (Tyr-c[Asp-Ala-DPhe-Arg-Trp-Asn-Ala-Phe-Dpr]-Tyr) (peptide)
# peptide: YDAXRWNAFXY
# modifications: Asp-Dpr side chain lactam bridge; Dpr; DPhe; C-terminal amide (amide resin)
# B13: SEQ ID NO:2 (Tyr-c[Asp-Ala-Ala-Ala-Asn-Ala-Phe-Dpr]-Tyr) (peptide)
# peptide: YDAAANAF[Dap]Y-NH2
# modifications: lactam 2-9; N-terminus assumed
# SMILES: C[C@@H]1NC(=O)[C@H](C)NC(=O)[C@@H](NC(=O)[C@@H](N)Cc2ccc(O)cc2)CC(=O)NC[C@@H](C(=O)N[C@@H](Cc2ccc(O)cc2)C(N)=O)NC(=O)[C@H](Cc2ccccc2)NC(=O)[C@H](C)NC(=O)[C@H](CC(N)=O)NC(=O)[C@H](C)NC1=O
# B14: SEQ ID NO:27 (Tyr-c[Asp-His-DPhe-Arg-Ala-Asn-Ala-Phe-Dpr]-Tyr) (peptide)
# peptide: YDHXRANAFXY
# modifications: Asp-Dpr side chain lactam bridge; Dpr; DPhe; C-terminal amide (amide resin)
# B15: SEQ ID NO:32 (Tyr-c[Asp-His-(pI)DPhe-Arg-Trp-Asn-Ala-Phe-Dpr]-Tyr) (peptide)
# peptide: YDHXRWNAFXY
# modifications: Asp-Dpr side chain lactam bridge; Dpr; (pI)DPhe; C-terminal amide (amide resin)
# Target: mouse melanocortin-4 receptor (mouse, UniProt P56450 1-332)
# Experiment: cell-based or functional assay
# mouse melanocortin-4 receptor, sequence (P56450 whole entry): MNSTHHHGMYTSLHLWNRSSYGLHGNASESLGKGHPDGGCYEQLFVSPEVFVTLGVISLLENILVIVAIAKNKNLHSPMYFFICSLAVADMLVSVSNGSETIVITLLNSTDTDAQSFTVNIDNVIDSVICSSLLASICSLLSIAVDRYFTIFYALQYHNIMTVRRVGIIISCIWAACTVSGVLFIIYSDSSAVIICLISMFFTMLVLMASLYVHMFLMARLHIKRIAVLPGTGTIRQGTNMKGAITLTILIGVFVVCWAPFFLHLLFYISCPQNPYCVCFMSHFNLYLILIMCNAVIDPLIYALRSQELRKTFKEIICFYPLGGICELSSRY
Binder,EC50 (agonist) [nM],pA2 (antagonist),pA2 (antagonist; Partial agonist)
B1,16700,,
B2,450,,
B3,10900,,
B4,0.57,,
B5,0.57,,
B6,4300,,
B7,7200,,
B8,,5.9,
B9,5000,,
B10,0.63,,
B11,> 100000,,
B12,0.36,,
B13,> 100000,,
B14,710,,
B15,,,9.4

# Target: mouse melanocortin-3 receptor (mouse, UniProt P33033 1-323)
# Experiment: cell-based or functional assay
# mouse melanocortin-3 receptor, sequence (P33033 whole entry): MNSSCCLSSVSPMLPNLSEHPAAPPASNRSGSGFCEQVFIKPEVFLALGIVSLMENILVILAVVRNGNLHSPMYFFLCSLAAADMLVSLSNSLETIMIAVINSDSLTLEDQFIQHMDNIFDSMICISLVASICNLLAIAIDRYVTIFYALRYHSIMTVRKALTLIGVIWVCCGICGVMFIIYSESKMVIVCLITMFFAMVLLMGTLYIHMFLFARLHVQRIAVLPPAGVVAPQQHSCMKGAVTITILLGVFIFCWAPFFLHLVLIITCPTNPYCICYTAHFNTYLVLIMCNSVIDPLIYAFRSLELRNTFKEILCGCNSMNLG
Binder,EC50 (agonist) [nM],pA2 (antagonist),pA2 (antagonist; Partial agonist)
B1,13200,,
B4,33,,
B5,320,,
B6,17300,,
B7,39200,,
B8,,5.7,
B9,14400,,
B10,,,7.2
B11,> 100000,,
B12,29,,
B13,> 100000,,
B14,13500,,
B15,,8.9,

# Target: mouse melanocortin-1 receptor (mouse, UniProt Q01727 1-315)
# Experiment: cell-based or functional assay
# mouse melanocortin-1 receptor, sequence (Q01727 whole entry): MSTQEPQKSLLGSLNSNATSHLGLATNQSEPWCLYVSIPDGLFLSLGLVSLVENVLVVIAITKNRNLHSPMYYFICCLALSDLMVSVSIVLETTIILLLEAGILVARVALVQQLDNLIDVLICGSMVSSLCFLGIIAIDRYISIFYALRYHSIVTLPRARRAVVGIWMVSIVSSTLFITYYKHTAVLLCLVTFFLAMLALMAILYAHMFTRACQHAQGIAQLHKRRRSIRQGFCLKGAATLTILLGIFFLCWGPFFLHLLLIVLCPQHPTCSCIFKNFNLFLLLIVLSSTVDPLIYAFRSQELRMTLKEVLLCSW
row,Binder,EC50 (agonist) [nM]
1,B1,10300
2,B2,4850
3,B3,6120
4,B4,3.87
5,B5,9.2
6,B6,990
7,B7,1000
8,B9,440
9,B10,22.1
10,B12,7.2
11,B13,> 100000
12,B14,350
13,B15,0.3

# Target: mouse melanocortin-5 receptor (mouse, UniProt P41149 1-325)
# Experiment: cell-based or functional assay
# mouse melanocortin-5 receptor, sequence (P41149 whole entry): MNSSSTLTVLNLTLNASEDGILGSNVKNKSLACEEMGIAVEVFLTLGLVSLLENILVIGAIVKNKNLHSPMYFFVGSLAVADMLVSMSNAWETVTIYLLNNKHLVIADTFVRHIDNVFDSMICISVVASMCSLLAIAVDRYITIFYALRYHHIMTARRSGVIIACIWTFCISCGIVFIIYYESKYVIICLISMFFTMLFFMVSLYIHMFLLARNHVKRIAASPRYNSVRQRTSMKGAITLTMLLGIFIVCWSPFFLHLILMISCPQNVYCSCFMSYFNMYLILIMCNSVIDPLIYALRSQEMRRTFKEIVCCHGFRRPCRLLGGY
row,Binder,EC50 (agonist) [nM]
1,B1,7900
2,B2,124
3,B3,2220
4,B4,5.27
5,B5,3.13
6,B6,3200
7,B7,700
8,B8,> 100000
9,B9,3600
10,B10,7.16
11,B12,0.46
12,B13,> 100000
13,B14,50.1
14,B15,2.33
